Data on 2 substances can be found in patent publication EP0638644A1.

For assay [1], the target named is recombinant human IL-12 receptor (clone No. 5, SEQ ID NO:2) expressed in COS cells (human). The assay is described as follows: equilibrium binding of labelled murine IL-12 to COS cells expressing clone 5, Scatchard, single site (Figure 19B).
Assay [2] has as its target soluble complex of ¹²⁵I-IL-12 crosslinked to human IL-12R (human) (UniProt P29459). The experiment in a line: immunoprecipitation of solubilized 125I-IL-12/IL-12R complex by immobilized control antibody (background).

Chain of soluble complex of ¹²⁵I-IL-12 crosslinked to human IL-12R (human) (P29459 23-219, form in doubt, chain 1 of 3, other chains not shown): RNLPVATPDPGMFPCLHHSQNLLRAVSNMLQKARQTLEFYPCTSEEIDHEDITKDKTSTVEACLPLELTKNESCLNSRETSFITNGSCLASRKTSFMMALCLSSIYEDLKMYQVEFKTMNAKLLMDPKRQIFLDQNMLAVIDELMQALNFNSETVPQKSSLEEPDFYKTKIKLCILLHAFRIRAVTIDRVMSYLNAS
Chain of soluble complex of ¹²⁵I-IL-12 crosslinked to human IL-12R (human) (P29460 23-328, form in doubt, chain 2 of 3, other chains not shown, further chain): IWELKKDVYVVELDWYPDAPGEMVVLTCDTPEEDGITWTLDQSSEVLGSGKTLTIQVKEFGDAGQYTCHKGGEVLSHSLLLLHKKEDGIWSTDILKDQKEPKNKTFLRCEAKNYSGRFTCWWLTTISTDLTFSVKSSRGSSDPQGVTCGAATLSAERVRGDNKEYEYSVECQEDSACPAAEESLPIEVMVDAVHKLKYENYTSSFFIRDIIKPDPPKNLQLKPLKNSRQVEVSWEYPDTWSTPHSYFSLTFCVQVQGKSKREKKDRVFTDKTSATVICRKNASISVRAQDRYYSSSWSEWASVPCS

On to “Recombinant murine IL-12 (from UniProt P43431 23-215; P43432 23-335) (ligand)”, for which the dissociation constant Kd in assay [1] came to 2.1 nM.

With Control mAb (Table 1) (antibody), the I.P. ASSAY (cpm bound) in assay [2] was 402 cpm.
